Results published in patent US20250121043A1.

Key:
Assay in all cases: cell-based or functional assay
[1] = target: 17.4α/8.3β TCR (8.3-TCR)
[2] = target: 17.6α/8.3β TCR (low affinity IGRP206-214-reactive Vα17.6/8.3β TCR)
[3] = target: Vα17.5+ TCR (CDR3-invariant Vα17.5-Jα42 chain with a single TCRβ chain) on TCRαβ-transfectants

- percentage of cells that had formed CD8 caps, 5 min of incubation with beads [1]: < 20%
- percentage of cells that had formed CD8 caps, 5 min of incubation with beads [2]: < 20%
- percentage of cells that had formed CD8 caps, 30 min of incubation with beads [2]: < 20%
- percentage of cells that had formed CD8 caps, 5 min of incubation with beads [3]: > 60%
Substance: NRP-V7/K^d-coated nanoparticles (from UniProt P01902 22-305) (peptide-MHC)
